The target in assay [1] is T1, human NPRA on HEK293 cells bound to ANP (human, UniProt P01160 124-151).
T1 sequence: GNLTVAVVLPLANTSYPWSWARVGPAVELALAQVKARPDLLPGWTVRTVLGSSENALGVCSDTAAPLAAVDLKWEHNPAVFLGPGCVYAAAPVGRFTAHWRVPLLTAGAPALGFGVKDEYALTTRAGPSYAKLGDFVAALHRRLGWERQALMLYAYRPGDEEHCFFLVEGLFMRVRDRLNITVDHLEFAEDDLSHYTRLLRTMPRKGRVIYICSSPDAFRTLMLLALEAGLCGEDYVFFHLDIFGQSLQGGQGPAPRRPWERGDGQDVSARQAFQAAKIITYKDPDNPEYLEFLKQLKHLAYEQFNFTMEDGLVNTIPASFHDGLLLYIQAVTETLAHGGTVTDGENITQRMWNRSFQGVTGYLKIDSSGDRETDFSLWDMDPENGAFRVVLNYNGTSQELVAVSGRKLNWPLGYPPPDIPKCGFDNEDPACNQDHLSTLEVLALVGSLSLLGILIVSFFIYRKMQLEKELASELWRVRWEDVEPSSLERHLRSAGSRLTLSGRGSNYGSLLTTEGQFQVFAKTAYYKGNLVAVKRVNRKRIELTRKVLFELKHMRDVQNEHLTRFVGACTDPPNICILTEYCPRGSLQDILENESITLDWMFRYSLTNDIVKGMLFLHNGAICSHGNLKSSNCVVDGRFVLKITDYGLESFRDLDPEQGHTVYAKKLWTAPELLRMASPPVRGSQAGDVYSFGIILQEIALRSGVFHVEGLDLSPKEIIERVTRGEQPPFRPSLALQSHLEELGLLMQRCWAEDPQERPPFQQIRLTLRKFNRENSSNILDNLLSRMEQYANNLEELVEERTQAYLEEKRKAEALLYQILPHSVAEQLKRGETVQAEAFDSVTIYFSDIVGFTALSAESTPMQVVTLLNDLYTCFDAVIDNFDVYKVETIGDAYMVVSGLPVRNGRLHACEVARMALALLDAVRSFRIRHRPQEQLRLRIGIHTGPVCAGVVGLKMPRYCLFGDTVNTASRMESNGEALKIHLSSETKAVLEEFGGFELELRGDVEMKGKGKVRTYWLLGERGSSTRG
T1 sequence (peptide): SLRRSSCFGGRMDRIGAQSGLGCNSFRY
The experiment in a line: cell-based or functional assay.

Assay [2] addresses T1, human NPRA on HEK293 cells bound to ANP. The experiment in a line: FACS, HEK NPRA cells with ANP. (In general: In flow cytometry, cells or beads pass a laser one at a time.)
The target in assay [3] is T2, NPRA-Fc fusion protein bound to ANP (human, UniProt P01160 124-151).
T2 construct: mature; Receptor-ligand complex; 'human ANP' is stated for Biacore, plain 'ANP' for ELISA and HXMS; also called NPRA-Fc+ANP
The experiment in a line: SPR (Biacore 3000), NPRA-Fc amine-coupled on CM5, analyte with 100 nM human ANP.

Assay [4] has as its target T1, human NPRA on HEK293 cells bound to ANP. The experiment in a line: cell-based or functional assay. The source holds these as a separate data set.
Assay [5] addresses T3, human NPRC on HEK293 cells, without added ligand (human, UniProt P17342 27-541).
T3 construct: whole, on cells; also called HEK NPRC cells; natriuretic peptide receptor C
T3 sequence (looked up): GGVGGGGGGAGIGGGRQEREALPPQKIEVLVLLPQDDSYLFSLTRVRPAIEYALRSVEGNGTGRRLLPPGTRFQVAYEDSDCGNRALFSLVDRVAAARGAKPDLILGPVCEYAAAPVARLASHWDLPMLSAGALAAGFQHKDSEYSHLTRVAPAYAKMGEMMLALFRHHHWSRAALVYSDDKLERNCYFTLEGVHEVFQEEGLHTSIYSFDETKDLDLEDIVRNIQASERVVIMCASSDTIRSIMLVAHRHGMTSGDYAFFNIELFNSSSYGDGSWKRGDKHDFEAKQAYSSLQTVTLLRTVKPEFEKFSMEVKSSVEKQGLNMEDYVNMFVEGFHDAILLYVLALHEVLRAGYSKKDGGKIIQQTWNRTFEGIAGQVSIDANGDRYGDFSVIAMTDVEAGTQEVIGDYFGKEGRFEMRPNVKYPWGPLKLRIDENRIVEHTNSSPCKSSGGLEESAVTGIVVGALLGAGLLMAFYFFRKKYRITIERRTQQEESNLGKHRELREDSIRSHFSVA
Nature of the assay: FACS, HEK NPRC cells without ligand.
Description: (§1) HEK NPRA cells are detached with Accutase (PAA Laboratories GmbH, Cat. No. L11-007, Austria), harvested by centrifugation (900 rpm, 4 minutes) and resuspended in FACS buffer (PBS/3% FCS/0.02% NaN3) to a final concentration of 10⁶ cells/ml. 100 μl of the cell suspension is transferred to each well of a 96 round bottom plate (TC Microwell 96U, Nunc). […] Cells are washed in 150 μl of FACS buffer, pelleted and resuspended in 50 μl of the solution containing the primary antibody comprising a BEL extract of Fabs, a diluted BEL extract or purified antibody diluted in FACS buffer and incubated on ice for 30 min. Cells are washed again in FACS buffer and resuspended in 50 μl of FACS buffer containing the secondary antibody (R-Phycoerythrin-conjugated Affipure F(ab′)₂ Fragment Goat Anti-Human IgG, Dianova) and incubated on ice for 45 min. Cells are washed twice with FACS buffer and resuspended in 200 μl of FACS buffer for analysis in the FACS Array (BD Biosciences).

Assay [6] has as its target T4, human NPRA on HEK293 cells, without added ligand (human, UniProt P16066 33-1061).
T4 construct: a signal peptide is not delimited; also called HEK NPRA cells; HEK hNPRA cells
T4 sequence: T1 sequence
The experiment in a line: FACS, HEK NPRA cells without ligand.

The target of assay [7] is T5, human NPRB on HEK293 cells, without added ligand (human, UniProt P20594 23-1047).
T5 construct: whole, on cells; also called HEK NPRB cells; natriuretic peptide receptor B
T5 sequence (looked up): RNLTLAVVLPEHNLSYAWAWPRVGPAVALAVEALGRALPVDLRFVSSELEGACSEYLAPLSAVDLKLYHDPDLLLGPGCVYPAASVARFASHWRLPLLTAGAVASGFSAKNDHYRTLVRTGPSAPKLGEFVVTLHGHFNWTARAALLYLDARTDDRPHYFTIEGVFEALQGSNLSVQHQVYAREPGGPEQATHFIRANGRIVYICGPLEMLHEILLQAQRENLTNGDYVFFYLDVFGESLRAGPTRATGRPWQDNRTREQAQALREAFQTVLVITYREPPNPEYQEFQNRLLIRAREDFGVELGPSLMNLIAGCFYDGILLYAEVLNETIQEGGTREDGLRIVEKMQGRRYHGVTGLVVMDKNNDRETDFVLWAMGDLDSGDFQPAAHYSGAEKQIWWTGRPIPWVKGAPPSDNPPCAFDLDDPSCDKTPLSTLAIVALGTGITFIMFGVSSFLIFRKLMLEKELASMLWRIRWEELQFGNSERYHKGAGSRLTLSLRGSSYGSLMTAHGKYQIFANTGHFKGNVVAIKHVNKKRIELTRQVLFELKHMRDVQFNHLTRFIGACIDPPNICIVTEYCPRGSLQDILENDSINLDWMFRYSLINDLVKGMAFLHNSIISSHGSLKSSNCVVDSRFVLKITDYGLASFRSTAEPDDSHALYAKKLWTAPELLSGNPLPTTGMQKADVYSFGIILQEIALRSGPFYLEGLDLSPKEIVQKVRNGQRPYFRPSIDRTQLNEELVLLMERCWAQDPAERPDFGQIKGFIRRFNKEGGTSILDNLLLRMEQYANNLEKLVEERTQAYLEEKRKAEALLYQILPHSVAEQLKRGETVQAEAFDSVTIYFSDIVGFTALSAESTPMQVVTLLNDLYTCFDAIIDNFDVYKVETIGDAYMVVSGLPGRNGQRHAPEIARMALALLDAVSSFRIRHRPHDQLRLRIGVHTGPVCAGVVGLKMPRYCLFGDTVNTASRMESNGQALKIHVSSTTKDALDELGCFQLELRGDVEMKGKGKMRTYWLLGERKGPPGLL
The experiment in a line: FACS, HEK NPRB cells without ligand.
Description: as §1

The target of assay [8] is T6, human NPRC on HEK293 cells in the presence of ANP (human, UniProt P17342 27-541; P01160 124-151).
T6 construct: whole, on cells;mature; also called HEK NPRC cells + 100 nM ANP
T6 sequence (looked up): T3 sequence (looked up)
T6 sequence (peptide, looked up): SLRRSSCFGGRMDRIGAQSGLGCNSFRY
Nature of the assay: FACS, HEK NPRC cells with 100 nM ANP.
Description: as §1

Assay [9] has as its target T7, human NPRC on HEK293 cells in the presence of BNP (human, UniProt P17342 27-541; P16860 103-134).
T7 construct: whole, on cells;mature; also called HEK NPRC cells + 100 nM BNP
T7 sequence (looked up): T3 sequence (looked up)
T7 sequence (peptide, looked up): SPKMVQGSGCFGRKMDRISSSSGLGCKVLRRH
Nature of the assay: FACS, HEK NPRC cells with 100 nM BNP.
Description: as §1

Assay [10] has as its target T8, human NPRB on HEK293 cells in the presence of CNP (human, UniProt P20594 23-1047; P23582 105-126).
T8 construct: whole, on cells;mature; also called HEK NPRB cells + 100 nM CNP
Nature of the assay: FACS, HEK NPRB cells with 100 nM CNP.
Description: as §1

Assay [11] addresses T1, human NPRA on HEK293 cells bound to ANP. The experiment in a line: FACS, HEK NPRA cells with 100 nM ANP, IgG4_Pro format.
The target is the same in assay [12]. The experiment in a line: FACS, IgG4_Pro on HEK NPRA cells in the presence of 100 nM ANP.
Description: as §1

Substitutions are numbered along the chain they refer to. Where only a bound is given, the exact number is not on record here.

Consider 9 molecules from patent US20160168251A1 (MorphoSys, published 2016).

The term EC50 (read off the curve) denotes the concentration that produces a half-maximal response. Lower therefore signals higher potency in that assay. Broadly, the Kd is the constant that tells how readily two partners part at equilibrium. What is called koff is the rate constant with which the complex falls apart. Read a high koff as fast dissociation. A word on the kon: it is a measure of how fast the partners come together. Lower therefore signals slower complex formation. Usually EC50 stands for the concentration at which the effect is half-maximal.

T8 sequence (P23582 105-126 limits assumed, one chain of several): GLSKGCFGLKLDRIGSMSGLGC

B1: 5502 Fab (Fab, V domains shown)
VH: QVQLQQSGPGLVKPSQTLSLTCAISGDSVSSRSASWSWIRQSPGRGLEWLGRIYYRSKWYNDYAVSVKSRITINPDTSKNQFSLQLNSVTPEDTAVYYCARMDVPSFRYFDVWGQGTLVTVSS
VL: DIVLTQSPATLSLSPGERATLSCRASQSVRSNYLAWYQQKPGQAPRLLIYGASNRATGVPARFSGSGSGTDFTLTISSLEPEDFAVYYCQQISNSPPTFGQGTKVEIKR
B1: in assay [1], the “EC50 of ANP, cGMP production in HEK NPRA cells, with 400 nM Fab” value (“EC50 of ANP, cGMP production” below) came out at 0.3 nM and the “factor by which the potency of ANP is enhanced (cGMP, 400 nM Fab)” value was determined as 10 fold.

B2: 5064 IgG1 (antibody, V domains shown)
VH: B1 VH
VL: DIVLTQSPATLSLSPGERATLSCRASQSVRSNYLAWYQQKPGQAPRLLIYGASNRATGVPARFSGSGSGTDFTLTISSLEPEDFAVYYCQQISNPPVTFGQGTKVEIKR
notes: Human IgG1 format
With B2, in [2], the “EC50 (read off the curve)” value was ~0.5 nM.

B3: 5591 Fab (Fab, V domains shown)
VH: B1 VH with I53T, K58H, N61Y, D62E, V65Q
VL: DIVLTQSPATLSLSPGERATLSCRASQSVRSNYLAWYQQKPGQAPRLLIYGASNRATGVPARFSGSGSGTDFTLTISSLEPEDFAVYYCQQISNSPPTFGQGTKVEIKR
In [3], B3 yielded a Kd of 1.16 nM, an off-rate constant (koff) of 0.00103 s⁻¹ and a kon of 884000 M⁻¹ s⁻¹.

B4: 5504 Fab (Fab, V domains shown)
VH: B1 VH
VL: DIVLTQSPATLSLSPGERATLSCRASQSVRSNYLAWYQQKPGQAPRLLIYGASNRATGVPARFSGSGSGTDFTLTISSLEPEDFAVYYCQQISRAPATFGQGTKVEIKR
As for B4, in assay [1], the “EC50 of ANP, cGMP production” value came out at 0.3 nM and the “factor by which the potency of ANP is enhanced (cGMP, 400 nM Fab)” value was found to be 10 fold.

B5: 5592 Fab (Fab, V domains shown)
VH: B1 VH with I53T, K58H, N61Y, D62E, V65Q
VL: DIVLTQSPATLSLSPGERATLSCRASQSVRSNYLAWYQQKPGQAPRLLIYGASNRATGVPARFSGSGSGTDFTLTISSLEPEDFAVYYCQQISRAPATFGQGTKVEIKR
In the case of B5, in assay [3], the Kd was found to be 0.426 nM, the koff is 0.000369 s⁻¹ and the kon worked out at 868000 M⁻¹ s⁻¹.

B6: 5514 Fab (Fab, V domains shown)
VH: B1 VH
VL: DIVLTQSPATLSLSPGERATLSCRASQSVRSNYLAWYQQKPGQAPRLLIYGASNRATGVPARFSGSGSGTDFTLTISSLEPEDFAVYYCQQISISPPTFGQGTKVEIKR
In the case of B6, the “EC50 of ANP, cGMP production” value in [1] lay in the range of 0.5 to 0.6 nM.

B7: 5507 Fab (Fab, V domains shown)
VH: B1 VH
VL: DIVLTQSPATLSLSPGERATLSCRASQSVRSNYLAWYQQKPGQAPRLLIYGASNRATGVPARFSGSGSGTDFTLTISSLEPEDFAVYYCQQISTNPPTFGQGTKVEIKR
Turning to B7, the “EC50 of ANP, cGMP production” value in assay [1] lay within 0.5 to 0.6 nM.

B8: 5513 Fab (Fab, V domains shown)
VH: B1 VH
VL: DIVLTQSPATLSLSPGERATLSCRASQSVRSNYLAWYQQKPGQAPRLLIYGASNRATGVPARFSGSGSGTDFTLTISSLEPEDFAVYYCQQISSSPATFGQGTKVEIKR
As for B8, the “EC50 of ANP, cGMP production” value in assay [1] is 0.5 to 0.6 nM.

B9: 5504 IgG4_Pro (antibody, V domains shown)
VH: B1 VH
VL: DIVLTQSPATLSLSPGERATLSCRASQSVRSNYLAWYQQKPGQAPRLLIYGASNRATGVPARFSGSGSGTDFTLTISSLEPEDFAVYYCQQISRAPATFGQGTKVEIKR
notes: Human IgG4_Pro
For the molecule B9, in [1], the “fold increase in the potency of ANP (cGMP, HEK NPRA cells, 200 nM IgG4_Pro)” value is ≤ 10 fold. Further, the “cGMP EC50 (nM), titration of the antibody on HEK NPRA cells with 200 pM ANP” value in assay [4] was 1.2 nM. In addition, the binding result in assay [5], in assay [6], in [7], in assay [8], in assay [9] and in [10] was “no binding (tested: 20 nM)” in each case. In addition, in assay [11], the half-maximal effective concentration (EC50 (read off the curve)) is ~0.5 nM. The EC50 in assay [12] worked out at 0.56 nM.
